In paper PMC12753105 one finds best-fit effective RNP life-time (with SL7 RNA) and Kd data, which are given here for 4 substances.

pKd: −log10 of the molar value.

As usually defined, the pKd is the negative decadic logarithm of the Kd, by convention in mol/L. The low end stands for a high Kd, the high end for a low Kd.

The target in assay [1] is SARS-CoV-2 N-protein N:G215C (reduced), full length (SARS-CoV-2) (UniProt P0DTC9). The experiment in a line: mass photometry.
For assay [2] the target is unchanged. The experiment in a line: AUC.
In assay [3] the target is SARS-CoV-2 N-protein N:G215C* (oxidized), full length (SARS-CoV-2) (UniProt P0DTC9). The experiment in a line: mass photometry.
Assay [4] has as its target SARS-CoV-2 N-protein N:R203K/G204R, full length (SARS-CoV-2) (UniProt P0DTC9). The experiment in a line: mass photometry.
For assay [5], the target named is SARS-CoV-2 N-protein Nο (N:P13L/Δ31–33/R203K/G204R), full length (SARS-CoV-2) (UniProt P0DTC9). The experiment in a line: mass photometry.

In assay [1], “SARS-CoV-2 N-protein N:G215C (reduced), full length (from UniProt P0DTC9 1-419) (natural protein)” showed a best-fit effective RNP life-time (with SL7 RNA) of 231 s. In assay [2], this substance gave a negative-log Kd (pKd) of 6.00.
Consider “SARS-CoV-2 N-protein N:G215C* (oxidized), full length (from UniProt P0DTC9 1-419) (natural protein)”, for which the best-fit effective RNP life-time (with SL7 RNA) in assay [3] stood at 41.8 s.
“SARS-CoV-2 N-protein N:R203K/G204R, full length (from UniProt P0DTC9 1-419) (natural protein)” had a best-fit effective RNP life-time (with SL7 RNA) in assay [4] of 54.6 s.
Turning to “SARS-CoV-2 N-protein Nο (N:P13L/Δ31–33/R203K/G204R), full length (from UniProt P0DTC9 1-419) (natural protein)”, the best-fit effective RNP life-time (with SL7 RNA) in assay [5] was determined as 58.5 s.
